Eleven molecules from US20200317768A1 (published 2020) can be followed below.

First the molecules themselves.
B1: MS_M103205H795-SG1/M103202L889-SK1 (antibody, human IgG1, kappa)
heavy: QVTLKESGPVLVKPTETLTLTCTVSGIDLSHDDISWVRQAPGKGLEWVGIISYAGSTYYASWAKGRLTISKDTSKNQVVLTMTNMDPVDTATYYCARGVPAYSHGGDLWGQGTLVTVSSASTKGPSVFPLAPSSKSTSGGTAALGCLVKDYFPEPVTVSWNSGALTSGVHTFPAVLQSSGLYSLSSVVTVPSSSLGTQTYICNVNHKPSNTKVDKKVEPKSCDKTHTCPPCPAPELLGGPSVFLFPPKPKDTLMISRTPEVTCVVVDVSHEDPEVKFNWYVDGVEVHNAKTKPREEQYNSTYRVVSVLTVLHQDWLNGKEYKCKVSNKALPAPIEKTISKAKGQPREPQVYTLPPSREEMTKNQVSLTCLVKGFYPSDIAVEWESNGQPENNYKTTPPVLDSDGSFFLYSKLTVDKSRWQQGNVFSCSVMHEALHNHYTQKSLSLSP
light: DIVMTQSPATLSLSPGERATLSCTSSQSVYHANWLSWFQQKPGQPPKLLIYWASTLAYGVPSRFSGSGSGTDFTLTISSLQPEDAATYYCAGGYGGGRYAFGQGTKVEIKRTVAAPSVFIFPPSDEQLKSGTASVVCLLNNFYPREAKVQWKVDNALQSGNSQESVTEQDSKDSTYSLSSTLTLSKADYEKHKVYACEVTHQGLSSPVTKSFNRGEC
notes: Parent of the Fc variants; also called MS1032LO06-SG1
B2: M103205H795-MY050/M103202L889-SK1 (antibody, human IgG1, kappa)
heavy: QVTLKESGPVLVKPTETLTLTCTVSGIDLSHDDISWVRQAPGKGLEWVGIISYAGSTYYASWAKGRLTISKDTSKNQVVLTMTNMDPVDTATYYCARGVPAYSHGGDLWGQGTLVTVSSASTKGPSVFPLAPSSKSTSGGTAALGCLVKDYFPEPVTVSWNSGALTSGVHTFPAVLQSSGLYSLSSVVTVPSSSLGTQTYICNVNHKPSNTKVDKKVEPKSCDKTHTCPPCPAPELLNGPSVFLFPPKPKDTLMISRTPEVTCVVVDVAEEDPEVKFNWYVDGVEVHNAKTKPREEQYNSTYRVVSVLTVLHQDWLNGKEYKCKVSNKALPAPIEKTISKAKGQPREPQVYTLPPSREEMTKNQVSLTCLVKGFYPSDIAVEWESNGQPENNYKTTPPVLDSDGSFFLYSKLTVDKSRWQQGNVFSCSVMHEALHNHYTQKSLSLSP
light: B1 light
notes: Substitutions introduced into M103205H795-SG1; expressed with M103202L889-SK1 as light chain
B3: M103205H795-MY101/M103202L889-SK1 (antibody, human IgG1, kappa)
heavy: B2 heavy with A269S, A332K, P398M
light: B1 light
notes: also called MS1032LO06-MY101
B4: M103205H795-MY051/M103202L889-SK1 (antibody, human IgG1, kappa)
heavy: B2 heavy with A269S, P273G
light: B1 light
notes: as for B2
B5: M103205H795-MY052/M103202L889-SK1 (antibody, human IgG1, kappa)
heavy: B2 heavy with A269S, P398M
light: B1 light
notes: as for B2
B6: M103205H795-MY048/M103202L889-SK1 (antibody, human IgG1, kappa)
heavy: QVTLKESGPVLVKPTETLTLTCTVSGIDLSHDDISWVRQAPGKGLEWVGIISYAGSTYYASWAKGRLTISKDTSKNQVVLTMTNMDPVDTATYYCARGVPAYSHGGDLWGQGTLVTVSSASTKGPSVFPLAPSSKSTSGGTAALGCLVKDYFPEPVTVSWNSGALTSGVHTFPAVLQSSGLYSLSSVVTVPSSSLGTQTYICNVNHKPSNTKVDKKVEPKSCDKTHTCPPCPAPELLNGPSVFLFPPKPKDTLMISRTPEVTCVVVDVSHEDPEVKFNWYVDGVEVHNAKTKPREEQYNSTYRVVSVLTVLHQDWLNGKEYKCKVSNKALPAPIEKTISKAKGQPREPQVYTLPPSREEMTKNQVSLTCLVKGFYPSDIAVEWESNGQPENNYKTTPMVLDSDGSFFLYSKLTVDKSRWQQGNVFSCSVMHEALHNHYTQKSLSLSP
light: B1 light
notes: as for B2
B7: M103205H795-MY049/M103202L889-SK1 (antibody, human IgG1, kappa)
heavy: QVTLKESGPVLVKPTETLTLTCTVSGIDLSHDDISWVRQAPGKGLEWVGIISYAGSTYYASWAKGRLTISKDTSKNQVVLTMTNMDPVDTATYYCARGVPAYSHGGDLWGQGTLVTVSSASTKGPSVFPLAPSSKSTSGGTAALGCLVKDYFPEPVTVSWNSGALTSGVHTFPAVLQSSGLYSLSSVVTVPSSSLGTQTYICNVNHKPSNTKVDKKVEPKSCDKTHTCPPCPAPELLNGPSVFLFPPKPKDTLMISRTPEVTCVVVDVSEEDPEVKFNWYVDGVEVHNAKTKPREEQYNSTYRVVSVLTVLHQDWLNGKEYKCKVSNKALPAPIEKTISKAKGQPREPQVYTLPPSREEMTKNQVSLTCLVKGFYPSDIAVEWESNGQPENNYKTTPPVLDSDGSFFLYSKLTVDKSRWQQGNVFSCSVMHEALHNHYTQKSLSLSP
light: B1 light
notes: as for B2
B8: M103205H795-MY115/M103202L889-SK1 (antibody, human IgG1, kappa)
heavy: B2 heavy with P398M
light: B1 light
notes: as for B2
B9: M103205H795-MY105/M103202L889-SK1 (antibody, human IgG1, kappa)
heavy: B2 heavy with S241V, A269S, P398M
light: B1 light
notes: as for B2
B10: M103205H795-MY047/M103202L889-SK1 (antibody, human IgG1, kappa)
heavy: not shown
light: B1 light
notes: as for B2
B11: M103205H795-MY001/M103202L889-SK1 (antibody, human IgG1, kappa)
heavy: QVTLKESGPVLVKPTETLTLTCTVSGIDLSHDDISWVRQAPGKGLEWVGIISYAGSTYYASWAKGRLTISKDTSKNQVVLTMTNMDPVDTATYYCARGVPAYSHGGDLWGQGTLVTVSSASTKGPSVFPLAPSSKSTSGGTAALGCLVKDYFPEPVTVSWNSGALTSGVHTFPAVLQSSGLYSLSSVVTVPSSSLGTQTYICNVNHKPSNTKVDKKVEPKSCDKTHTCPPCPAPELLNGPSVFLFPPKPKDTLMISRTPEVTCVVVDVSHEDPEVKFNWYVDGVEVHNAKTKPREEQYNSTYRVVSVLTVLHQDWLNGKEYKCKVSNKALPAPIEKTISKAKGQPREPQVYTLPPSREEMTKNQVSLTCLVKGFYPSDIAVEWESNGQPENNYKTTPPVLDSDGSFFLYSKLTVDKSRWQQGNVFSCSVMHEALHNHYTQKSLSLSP
light: B1 light
notes: as for B2

Positions count from the first letter of the chain named.

One assay has as its target T1, cynomolgus monkey FcγRIIa1 extracellular domain, C-terminal His-tag (cynomolgus monkey).
T1 construct: also called cyno FcγRIIa1; cynoFcgRIIa1
T1 chain: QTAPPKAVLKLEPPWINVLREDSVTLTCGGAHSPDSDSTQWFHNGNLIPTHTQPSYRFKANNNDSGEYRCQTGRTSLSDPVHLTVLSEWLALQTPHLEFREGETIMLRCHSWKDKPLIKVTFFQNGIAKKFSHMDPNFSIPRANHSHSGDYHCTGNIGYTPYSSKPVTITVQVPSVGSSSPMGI
Kind of assay: SPR (Biacore), antibody captured, FcgR analyte.
For the molecule B1, the Kd was found to be 3200 nM.

The molecule B2 displayed a Kd of 4300 nM.

As for B3, binding was put at a Kd of 1100 nM.

In the case of B4, binding was put at a Kd of 4600 nM.

In turn, B5 showed a Kd of 1400 nM.

B6: the affinity, expressed as Kd, was 14000 nM.

Molecule B7 returned a dissociation constant (Kd) of 2700 nM.

On to B8, for which the dissociation constant Kd came out at 2300 nM.

B9: binding was put at a Kd of 12000 nM.

In turn, B10 had a dissociation constant Kd of 4800 nM.

Molecule B11 came in with a Kd of 29000 nM.

In the next assay the target is T2, human FcγRIIaR extracellular domain, C-terminal His-tag (human, UniProt P12318 34-217).
T2 construct: also called human FcγRIIa (type R); FcgRIIaR
T2 chain: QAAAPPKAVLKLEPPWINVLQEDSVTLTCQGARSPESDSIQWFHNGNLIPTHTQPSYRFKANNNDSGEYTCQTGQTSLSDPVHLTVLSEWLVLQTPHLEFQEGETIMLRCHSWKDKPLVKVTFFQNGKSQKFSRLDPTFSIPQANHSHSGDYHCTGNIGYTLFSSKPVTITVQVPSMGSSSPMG
Kind of assay: SPR (Biacore), antibody captured, FcgR analyte.
On to B1, for which the Kd came out at 1100 nM.

B2 gave a dissociation constant Kd of 1500 nM.

For B3, the equilibrium dissociation constant (Kd) came out at 870 nM.

In the case of B4, the Kd was 2800 nM.

Molecule B5 came in with a Kd of 14000 nM.

B6 returned an equilibrium dissociation constant (Kd) of 3100 nM.

B7 had a Kd of 78000 nM.

Turning to B8, the Kd worked out at 640 nM.

On to B9, for which the dissociation constant Kd is 1400 nM.

In turn, B10 displayed an equilibrium dissociation constant (Kd) of 88 nM.

Molecule B11 yielded a dissociation constant (Kd) of 8200 nM.

The target of another assay is T3, cynomolgus monkey FcγRIIIaS extracellular domain, C-terminal His-tag (cynomolgus monkey, UniProt Q8SPW2 21-206 at identity 1.00)).
T3 construct: also called cyno FcγRIIIaS; cynoFcγRIIIaS
T3 chain: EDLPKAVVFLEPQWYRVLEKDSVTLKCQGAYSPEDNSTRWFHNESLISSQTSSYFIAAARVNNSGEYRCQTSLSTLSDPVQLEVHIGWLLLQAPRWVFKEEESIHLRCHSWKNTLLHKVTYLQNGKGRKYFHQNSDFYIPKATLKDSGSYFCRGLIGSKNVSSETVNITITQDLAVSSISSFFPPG
Kind of assay: SPR (Biacore), antibody captured, FcgR analyte.
On to B1, for which binding was characterised by a dissociation constant (Kd) of 360 nM.

The molecule B2 registered an equilibrium dissociation constant (Kd) of 1700 nM.

On to B3, for which binding was characterised by a dissociation constant (Kd) of 32000 nM.

In turn, B4 yielded a Kd of 2100 nM.

B5: the Kd came to 1500 nM.

B6 registered a dissociation constant (Kd) of 54 nM.

As to B7, the dissociation constant (Kd) came out at 4600 nM.

Consider B8, for which the Kd is 850 nM.

Molecule B9 showed a Kd of 13000 nM.

B10 displayed a Kd of 7800 nM.

B11 displayed an equilibrium dissociation constant (Kd) of 1200 nM.

The target in the next assay is T4, cynomolgus monkey FcγRIIb extracellular domain, C-terminal His-tag (cynomolgus monkey).
T4 construct: also called cyno FcγRIIb; cynoFcγRIIb
T4 chain: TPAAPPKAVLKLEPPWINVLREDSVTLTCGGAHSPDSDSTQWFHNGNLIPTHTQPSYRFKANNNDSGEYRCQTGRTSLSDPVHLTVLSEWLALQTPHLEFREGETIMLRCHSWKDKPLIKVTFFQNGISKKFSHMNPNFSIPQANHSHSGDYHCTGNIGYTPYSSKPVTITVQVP
Kind of assay: SPR (Biacore), antibody captured, FcgR analyte.
In turn, B1 registered a Kd of 1800 nM.

The molecule B2 returned a dissociation constant (Kd) of 1400 nM.

In turn, B3 returned a Kd of 550 nM.

Take B4: the dissociation constant Kd was 1900 nM.

The molecule B5 displayed a dissociation constant (Kd) of 460 nM.

In turn, B6 showed a Kd of 910 nM.

Regarding B7, binding was characterised by a dissociation constant (Kd) of 850 nM.

Molecule B8 returned a dissociation constant Kd of 780 nM.

Turning to B9, the dissociation constant (Kd) amounted to 390 nM.

The molecule B10 came in with a dissociation constant Kd of 2600 nM.

The molecule B11 returned a Kd of 1800 nM.

Another assay addresses T5, human FcγRIIaH extracellular domain, C-terminal His-tag (human, UniProt P12318 34-217).
T5 construct: also called human FcγRIIa (type H); FcgRIIaH
T5 sequence: T2 chain with R134H
Kind of assay: SPR (Biacore), antibody captured, FcgR analyte.
B1 had a Kd of 690 nM.

The molecule B2 returned an equilibrium dissociation constant (Kd) of 2100 nM.

For B3, the dissociation constant (Kd) is 480 nM.

B4 had a Kd of 22000 nM.

In the case of B5, binding was put at a Kd of 630 nM.

The molecule B6 returned a dissociation constant (Kd) of 1100 nM.

Molecule B7 registered a dissociation constant (Kd) of 1800 nM.

B8 came in with a dissociation constant Kd of 960 nM.

B9 gave a Kd of 15000 nM.

With B10, the affinity, expressed as Kd, was 2800 nM.

As for B11, the affinity, expressed as Kd, was 32 nM.

The target of the next assay is T6, cynomolgus monkey FcγRIIa2 extracellular domain, C-terminal His-tag (cynomolgus monkey).
T6 construct: also called cyno FcγRIIa2; cynoFcgRIIa2
T6 chain: T1 chain with P95T, T121A, I127K, A128S, K130N, D135N, R142Q
Kind of assay: SPR (Biacore), antibody captured, FcgR analyte.
Regarding B1, binding was put at a Kd of 5100 nM.

On to B2, for which the dissociation constant (Kd) was found to be 4200 nM.

For the molecule B3, the Kd was found to be 1200 nM.

The molecule B4 displayed an equilibrium dissociation constant (Kd) of 4800 nM.

Regarding B5, the affinity, expressed as Kd, was 1500 nM.

Turning to B6, binding was put at a Kd of 1700 nM.

B7: binding was put at a Kd of 2300 nM.

As to B8, binding was characterised by a dissociation constant (Kd) of 2700 nM.

With B9, the dissociation constant (Kd) was determined as 900 nM.

The molecule B10 had a dissociation constant (Kd) of 3400 nM.

In turn, B11 displayed a Kd of 3600 nM.

The target of the next assay is T7, human FcγRIIb extracellular domain, C-terminal His-tag (human, UniProt P31994 43-217).
T7 construct: also called human FcgRIIb; FcgRIIb
T7 sequence: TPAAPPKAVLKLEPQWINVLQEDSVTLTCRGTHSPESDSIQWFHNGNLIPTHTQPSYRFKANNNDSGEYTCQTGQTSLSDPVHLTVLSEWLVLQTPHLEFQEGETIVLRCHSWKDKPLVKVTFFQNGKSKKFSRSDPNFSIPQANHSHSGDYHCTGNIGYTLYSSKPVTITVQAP
Kind of assay: SPR (Biacore), antibody captured, FcgR analyte.
B1 showed a Kd of 4600 nM.

On to B2, for which the Kd stood at 750 nM.

B3 had a Kd of 490 nM.

The molecule B4 registered a Kd of 2000 nM.

Take B5: the affinity, expressed as Kd, was 720 nM.

On to B6, for which binding was characterised by a dissociation constant (Kd) of 3300 nM.

For B7, binding was put at a Kd of 1500 nM.

As for B8, the Kd worked out at 820 nM.

Molecule B9 displayed an equilibrium dissociation constant (Kd) of 570 nM.

B10 yielded a dissociation constant (Kd) of 3700 nM.

Turning to B11, binding was characterised by a dissociation constant (Kd) of 7700 nM.

The next assay has as its target T8, cynomolgus monkey FcγRIIa3 extracellular domain, C-terminal His-tag (cynomolgus monkey).
T8 construct: also called cyno FcγRIIa3; cynoFcgRIIa3
T8 chain: T1 chain with P95T, T121A, A128S, H133P, D135N
Kind of assay: SPR (Biacore), antibody captured, FcgR analyte.
B1 registered a Kd of 17000 nM.

Molecule B2 had an equilibrium dissociation constant (Kd) of 19000 nM.

Regarding B3, the dissociation constant Kd came to 36000 nM.

On to B4, for which the dissociation constant (Kd) amounted to 18000 nM.

As to B5, the Kd was 3900 nM.

In turn, B6 returned a Kd of 70000 nM.

As for B7, the affinity, expressed as Kd, was 6600 nM.

In turn, B8 showed a dissociation constant Kd of 76000 nM.

For B9, the affinity, expressed as Kd, was 13000 nM.

The molecule B10 displayed a dissociation constant (Kd) of 24000 nM.

On to B11, for which the Kd was determined as 15000 nM.

A further assay addresses T5, human FcγRIIaH extracellular domain, …. Kind of assay: SPR (Biacore); KD of SG1 / KD of variant.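 Note: relative to parent M103205H795-SG1 carrying the SG1 human heavy chain constant region.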
As to B1, the “KD fold (SG1 = 1)” value turned out to be 1 fold.

B2: the “KD fold (SG1 = 1)” value came out at 0.5 fold.

For B3, the “KD fold (SG1 = 1)” value was determined as 1.4 fold.

B4: the “KD fold (SG1 = 1)” value turned out to be 0.3 fold.

For B5, the “KD fold (SG1 = 1)” value worked out at 0.8 fold.

With B6, the “KD fold (SG1 = 1)” value amounted to 0.6 fold.

Take B7: the “KD fold (SG1 = 1)” value is 0.4 fold.

In the case of B8, the “KD fold (SG1 = 1)” value is 0.7 fold.

B9: the “KD fold (SG1 = 1)” value amounted to 0.5 fold.

In the case of B10, the “KD fold (SG1 = 1)” value amounted to 0.2 fold.

Consider B11, for which the “KD fold (SG1 = 1)” value stood at 0.2 fold.
